Test results: the supplement of paper PMC12042874
± gives the uncertainty stated by the source.

Assay: amyloid nucleation score (Sup35N fusion, yeast selection) (log enrichment); library NNK3; higher = more nucleation; inactive = no reads after selection
How it was run: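 DiMSum was used to calculate nucleation scores as log enrichment of output over input reads, centred on the mode score of non-aggregating sequences. Sequences with fewer than 100 input reads were not scored. Input and output came from Illumina sequencing of plasmid inserts in psi-negative yeast expressing peptides of 20 random codons fused to Sup35N, induced 24 hours with 100 μM copper sulfate and then grown 7 days at 30°C on medium lacking adenine and uracil.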
For SGWTPYLCSSSYELFREQRK, the amyloid nucleation score was -0.084 ± 0.27.
For SHAEVCQLSTSGPL, the amyloid nucleation score was “inactive”.
With SHCYTRVLCTLVVFT the amyloid nucleation score was “inactive”.
With SHFAEQGLSCSLSYSFSTIL the amyloid nucleation score was “inactive”.
With SHLFREIDITWSCSLVISCN the amyloid nucleation score was “inactive”.
In the case of SHQFYMSARTNW, the amyloid nucleation score is reported as 0.701 ± 0.24.
With SHVHLDSSRKRHIDLTNALR the amyloid nucleation score was “inactive”.
In the case of SHYRDK, the amyloid nucleation score is reported as “inactive”.
In the case of SIDDVDFSGTAKMSSSQRCT, the amyloid nucleation score is reported as “inactive”.
For SIFFIKTYESFDSSLFKSSS, the amyloid nucleation score was “inactive”.
SIFFNVVLFWGVWELTQGNR gave an amyloid nucleation score of 0.803 ± 0.27.
For SIIGASLLNYF, the amyloid nucleation score was “inactive”.
For SIIIIISCFGVQNVWFAEMM, the amyloid nucleation score was 0.405 ± 0.3.
In the case of SILDCLLKMGFNTILHACWN, the amyloid nucleation score is reported as “inactive”.
In the case of SINGRDSQG, the amyloid nucleation score is reported as “inactive”.
In the case of SIPLGFGMLSDDKSI, the amyloid nucleation score is reported as “inactive”.
Work on SIPNTTFIFSLL yielded an amyloid nucleation score of 1.19 ± 0.08.
In the case of SIPVSCGPLKKDVVREIRVK, the amyloid nucleation score is reported as “inactive”.
With SIQRICMYLKGESCTRVYHS the amyloid nucleation score was “inactive”.
In the case of SIRLGNNSWPVATSVKWHSV, the amyloid nucleation score is reported as “inactive”.
For SIRVSVMFNIRKKVFDLQRF, the amyloid nucleation score was “inactive”.
In the case of SISRLVISF, the amyloid nucleation score is reported as “inactive”.
For SITFGFESFDVVLGNM, the amyloid nucleation score was “inactive”.
With SIVSRLLDSIPMMIMSFYFG the amyloid nucleation score was “inactive”.
In the case of SIYCTLRVVGT, the amyloid nucleation score is reported as “inactive”.
With SIYDSVFKMFCVWIVTSVLF the amyloid nucleation score was “inactive”.
Substance SKCGLLNSSGTYWNIG has an amyloid nucleation score of 0.934 ± 0.15.
With SKESCRCLSWCGPEPRSCIA the amyloid nucleation score was “inactive”.
For SKFSSC, the amyloid nucleation score was “inactive”.
In the case of SKGSWHVFNKGSEWVKYFGM, the amyloid nucleation score is reported as “inactive”.
With SKGTLKHLN the amyloid nucleation score was 0.921 ± 0.12.
In the case of SKIFVNIDYVKVFRMICEWR, the amyloid nucleation score is reported as “inactive”.
For SKIGILWCLMSEECYLFQFR, the amyloid nucleation score was “inactive”.
SKIVNHFNDHYHFEITCQYQ showed an amyloid nucleation score of 2.88 ± 0.057.
For SKLRYRCSNSHQVIGTPCLD, the amyloid nucleation score was “inactive”.
With SKSARVLSFYYPYFFISINL the amyloid nucleation score was “inactive”.
For SKTHRSVFMMAVIELKPTNS, the amyloid nucleation score was “inactive”.
For SKVPYPNLVTCVVLCVGFYV, the amyloid nucleation score was “inactive”.
For SLASRHIGHLLISFLLGYGA, the amyloid nucleation score was “inactive”.
With SLCNGCMIK the amyloid nucleation score was “inactive”.
For SLDKLAFRD, the amyloid nucleation score was “inactive”.
In the case of SLEHHQIIYVLARPACL, the amyloid nucleation score is reported as “inactive”.
For SLFLLFLWYGINDTYLVYFV, the amyloid nucleation score was “inactive”.
For SLFRNS, the amyloid nucleation score was “inactive”.
Work on SLGNYHTLGMVFRLA yielded an amyloid nucleation score of -0.093 ± 0.48.
With SLGRFDLMCHTKYLSTTVVF the amyloid nucleation score was “inactive”.
For SLGYGDI, the amyloid nucleation score was “inactive”.
In the case of SLHWVYYIINYTVALTGVLL, the amyloid nucleation score is reported as “inactive”.
With SLHYEHLAGMTCRLVLEYLI the amyloid nucleation score was “inactive”.
In the case of SLIQY, the amyloid nucleation score is reported as “inactive”.
Substance SLIYTRFGSTSWCSKNF has an amyloid nucleation score of 1.53 ± 0.14.
With SLKMK the amyloid nucleation score was “inactive”.
For SLLALNRSPVLMRYISEHCN, the amyloid nucleation score was “inactive”.
For SLLDGTYYNTI, the amyloid nucleation score was “inactive”.
With SLLNSNHHGRVMQPRRINSD the amyloid nucleation score was “inactive”.
In the case of SLLYFLRNVKC, the amyloid nucleation score is reported as “inactive”.
In the case of SLMEGYSFSVPRSASRCSSQ, the amyloid nucleation score is reported as “inactive”.
With SLMNHLSGTKVMLGRLRYSN the amyloid nucleation score was “inactive”.
With SLMPMNYYGVTINVRWSLIQ the amyloid nucleation score was 0.554 ± 0.45.
In the case of SLRDRKDRWGCQMLRRWVDF, the amyloid nucleation score is reported as “inactive”.
For SLRFISSLWV, the amyloid nucleation score was “inactive”.
In the case of SLRFMLWLLL, the amyloid nucleation score is reported as “inactive”.
For SLRLSCVDVQVNN, the amyloid nucleation score was -0.253 ± 0.9.
In the case of SLRSCGSGLRSYRAVKTLPG, the amyloid nucleation score is reported as “inactive”.
In the case of SLSEEYDTLPATWTAQVCKR, the amyloid nucleation score is reported as “inactive”.
In the case of SLSHECTSNKTEQVIERRLW, the amyloid nucleation score is reported as “inactive”.
With SLSIVETIGVCL the amyloid nucleation score was “inactive”.
Work on SLTMNLFVRTASCGLASRVR yielded an amyloid nucleation score of -0.541 ± 1.7.
With SLVYACSSEL the amyloid nucleation score was “inactive”.
With SLWNDFMCQSCLGVIVNGAA the amyloid nucleation score was 0.253 ± 0.6.
With SLWPSRNCVDEEVFDFSDKS the amyloid nucleation score was “inactive”.
For SLWVSI, the amyloid nucleation score was “inactive”.
In the case of SLYFDT, the amyloid nucleation score is reported as “inactive”.
With SMDCFYLSHCRYRPRVI the amyloid nucleation score was “inactive”.
In the case of SMDMRWAFICLILTITSMGR, the amyloid nucleation score is reported as “inactive”.
In the case of SMDVLRFDQYRWLYRVFNLH, the amyloid nucleation score is reported as “inactive”.
SMFCMVSFMMW gave an amyloid nucleation score of -0.071 ± 0.22.
For SMFGLRLIDG, the amyloid nucleation score was “inactive”.
For SMFMLCVSADGEFFNCGTNH, the amyloid nucleation score was “inactive”.
For SMHRQVPFPMKKHLEHLSMT, the amyloid nucleation score was “inactive”.
In the case of SMINKRR, the amyloid nucleation score is reported as 1.16 ± 0.15.
Work on SMIYRLRSWVQYCDSQC yielded an amyloid nucleation score of 0.344 ± 0.21.
In the case of SMKEVLMTSGTSNVITSGGD, the amyloid nucleation score is reported as “inactive”.
Work on SMKLLT yielded an amyloid nucleation score of -0.254 ± 0.7.
With SMLLVGTPDIIGDS the amyloid nucleation score was “inactive”.
For SMNTHGCFYRRYLSESPFEC, the amyloid nucleation score was “inactive”.
For SMRSA, the amyloid nucleation score was “inactive”.
For SMSMDAYPQPPLNAMVLVSH, the amyloid nucleation score was “inactive”.
In the case of SMVVERGNQRLRSTYYADCV, the amyloid nucleation score is reported as “inactive”.
For SNASIYRSFWWGKYSRA, the amyloid nucleation score was -0.619 ± 0.82.
In the case of SNDFEVLVLQLLYFSIWCY, the amyloid nucleation score is reported as 1.48 ± 0.091.
With SNEEYGGSQKETCTIGSSLG the amyloid nucleation score was “inactive”.
For SNFFRYIFYTRSQFSFQLIN, the amyloid nucleation score was “inactive”.
SNIDCLFNNVLCWIVFEWC showed an amyloid nucleation score of 1.07 ± 0.11.
In the case of SNIRYRNFRSGFFIQWLHTG, the amyloid nucleation score is reported as “inactive”.
For SNLHMILDGWEMCALHAAMG, the amyloid nucleation score was “inactive”.
For SNLLCEALETRLYPRLKHVR, the amyloid nucleation score was “inactive”.
With SNLMYGNISINLDRWYVAFF the amyloid nucleation score was 2.51 ± 0.074.
With SNMNV the amyloid nucleation score was “inactive”.
With SNMSMMSYYAGRDPRPVSFL the amyloid nucleation score was “inactive”.
For SNRNRTTNMNHEPLANYSFN, the amyloid nucleation score was “inactive”.
In the case of SNYVMKVYRACHQVQPTISA, the amyloid nucleation score is reported as “inactive”.
SPARRLAAFGFVVL gave an amyloid nucleation score of -0.385 ± 1.2.
For SPCIVLVQKLCGLGCRFVSV, the amyloid nucleation score was 1.68 ± 0.11.
In the case of SPLKIMH, the amyloid nucleation score is reported as “inactive”.
In the case of SPLNQVSGYIMFWYSGT, the amyloid nucleation score is reported as “inactive”.
In the case of SPQLNCEANWKVFCWAGMDP, the amyloid nucleation score is reported as “inactive”.
SPRSFIILVGNGYISCSSVE gave an amyloid nucleation score of 2.56 ± 0.073.
With SPTRQLIKFKYSGHYIVHLR the amyloid nucleation score was “inactive”.
In the case of SPVHLCMDLGSS, the amyloid nucleation score is reported as “inactive”.
In the case of SPVVIRFTLLIKCRWLVVWI, the amyloid nucleation score is reported as “inactive”.
With SQACNHLVADRSTIGELSRM the amyloid nucleation score was “inactive”.
In the case of SQFDAYPCKMFHVYKNYP, the amyloid nucleation score is reported as “inactive”.
For SQFTEICTPVRHGSCCR, the amyloid nucleation score was “inactive”.
In the case of SQKFVYLMSPSWPGGQLEAR, the amyloid nucleation score is reported as “inactive”.
For SQLAYVGTVKTNFDKISRCG, the amyloid nucleation score was “inactive”.
For SQLKMSYRHYPMMMCVIVFS, the amyloid nucleation score was “inactive”.
With SQQRQVMPKRQSEKLYPSH the amyloid nucleation score was “inactive”.
With SQRELYH the amyloid nucleation score was “inactive”.
Substance SQSWMSNLLMGSRDDL has an amyloid nucleation score of 1.58 ± 0.13.
For SQTLQKDLAPSAKLCKIPGV, the amyloid nucleation score was “inactive”.
For SQYIWFFSVVLSFFSSVSWC, the amyloid nucleation score was -0.021 ± 0.85.
With SRAMVKVRSNFRQRK the amyloid nucleation score was “inactive”.
For SRFFGGRYSVLS, the amyloid nucleation score was “inactive”.
In the case of SRGTRSK, the amyloid nucleation score is reported as “inactive”.
For SRHFTIEVSQFCIISQGVNL, the amyloid nucleation score was “inactive”.
For SRITNHDD, the amyloid nucleation score was “inactive”.
In the case of SRKGDMPLDIDSWTCTVAFF, the amyloid nucleation score is reported as 1.13 ± 0.12.
For SRLIRKMKCVMGSTSSTIGY, the amyloid nucleation score was “inactive”.
With SRPLHFVYVIWGCPDQSDRN the amyloid nucleation score was “inactive”.
In the case of SRQRIDYFMVRRSGSWSRQV, the amyloid nucleation score is reported as “inactive”.
For SRRVN, the amyloid nucleation score was “inactive”.
For SRSCVACGLY, the amyloid nucleation score was “inactive”.
SRSVMIPVNS gave an amyloid nucleation score of -0.038 ± 0.75.
For SRSVSESDVMGTVGIYAEFS, the amyloid nucleation score was “inactive”.
In the case of SRTLTVYRVCHHIESSTNNF, the amyloid nucleation score is reported as “inactive”.
Work on SRVDPLLRNWDCRFSSLLL yielded an amyloid nucleation score of 0.935 ± 0.096.
For SRVFARFDEEDRDNSRKRTV, the amyloid nucleation score was “inactive”.
For SRVTSIWRGYNFINIKRGDL, the amyloid nucleation score was -0.42 ± 1.3.
For SRWLSDSEIENKWFLISDMT, the amyloid nucleation score was “inactive”.
In the case of SRWSGFCIYRGN, the amyloid nucleation score is reported as “inactive”.
In the case of SRWTEACI, the amyloid nucleation score is reported as “inactive”.
With SSAGVGVAKVGARHRLRRCW the amyloid nucleation score was “inactive”.
In the case of SSAIMCWRFMLMNSILITTP, the amyloid nucleation score is reported as “inactive”.
For SSARAKWSDQQMSSYRA, the amyloid nucleation score was “inactive”.
With SSEKLMQGFKVRLVCHFLAR the amyloid nucleation score was “inactive”.
In the case of SSFPGWDIECIC, the amyloid nucleation score is reported as “inactive”.
In the case of SSFSVSVVSKGKSVRNSGSL, the amyloid nucleation score is reported as 0.568 ± 0.33.
For SSFYCRAFGDRNVWKWQWCL, the amyloid nucleation score was “inactive”.
With SSGFSKSKYYICVLQFVGVV the amyloid nucleation score was “inactive”.
In the case of SSGGCR, the amyloid nucleation score is reported as “inactive”.
With SSGLMLWFDWLLVWRGCRLR the amyloid nucleation score was “inactive”.
In the case of SSIHVGVYYFMCMLEDVSRE, the amyloid nucleation score is reported as 1.07 ± 0.14.
In the case of SSITVF, the amyloid nucleation score is reported as “inactive”.
In the case of SSKARSQSCVLRMMIPDRQW, the amyloid nucleation score is reported as “inactive”.
Work on SSKNINVILMIKR yielded an amyloid nucleation score of 2.05 ± 0.066.
In the case of SSLCTL, the amyloid nucleation score is reported as “inactive”.
For SSLVSCYRIFNRSGADLGLT, the amyloid nucleation score was “inactive”.
In the case of SSLWSNK, the amyloid nucleation score is reported as “inactive”.
With SSMSRVCEIKVLYNMSGVYT the amyloid nucleation score was “inactive”.
